Test results reported in article PMC7375805.

Molecular target: AP2 FLAP (full-length β2 subunit AP2 complex, i.e. AP2 lacking the α appendage and the α hinge) (UniProt P18484)
Assay: cryo-EM structure; cryo-electron tomography and subtomogram averaging of AP2 FLAP on liposomes with PtdIns(4,5)P2 and TGN38 YxxΦ lipopeptide, no clathrin, HKM2 buffer; ~9 Å

percent of AP2 dimerized: 20%
stoichiometry N: 2
Substance: AP2 FLAP (full-length β2 subunit AP2 complex, i.e. AP2 lacking the α appendage and the α hinge) (from UniProt P18484 1-621; P63010 1-937; P84092 1-435; P62743 1-142)
